These results are taken from patent publication EP4353742A1 (Todd Pharm Co., Ltd., dated 2024).

B1: FGF21 variant ① (Gln184Glu & Gln201His & Ala208Thr) (ligand)
chain: DSSPLLQFGGQVRQRYLYTDDAQQTEAHLEIREDGTVGGAADQSPESLLQLKALKPGVIQILGVKTSRFLCQRPDGALYGSLHFDPEACSFRELLLEDGYNVYQSEAHGLPLHLPGNKSPHRDPAPRGPARFLPLPGLPPALPEPPGILAPEPPDVGSSDPLSMVGPSHGRSPSYTS
B2: FGF21 variant ② (Ser195Gly & Pro199Gly & Ser200Gly) (ligand)
chain: DSSPLLQFGGQVRQRYLYTDDAQQTEAHLEIREDGTVGGAADQSPESLLQLKALKPGVIQILGVKTSRFLCQRPDGALYGSLHFDPEACSFRELLLEDGYNVYQSEAHGLPLHLPGNKSPHRDPAPRGPARFLPLPGLPPALPEPPGILAPQPPDVGSSDPLGMVGGGQGRSPSYAS
B3: FGF21 variant ③ (combination of variants ① and ②) (ligand)
chain: DSSPLLQFGGQVRQRYLYTDDAQQTEAHLEIREDGTVGGAADQSPESLLQLKALKPGVIQILGVKTSRFLCQRPDGALYGSLHFDPEACSFRELLLEDGYNVYQSEAHGLPLHLPGNKSPHRDPAPRGPARFLPLPGLPPALPEPPGILAPEPPDVGSSDPLGMVGGGHGRSPSYTS

The target of the assay is FGFR1c. As to the kind of experiment: cell-based or functional assay.
For the molecule B1, the “EC50 of FGFR1c activation (luciferase reporter, HEK293 cells expressing FGFR1c and β-Klotho), fold increase compared to the wild type” value (“EC50 … fold increase compared to the wild type” below) stood at 1.73 fold.

In the case of B2, the “EC50 … fold increase compared to the wild type” value amounted to 4.38 fold.

For the molecule B3, the “EC50 … fold increase compared to the wild type” value stood at 6.03 fold.
